According to patent publication US20250134988A1:

Target: CoV2_5P prefusion-stabilized spike protein (SARS-CoV-2) (UniProt P0DTC2)
Assay: ELISA

Which EC50 (read off the curve) does the source give for CR3022 (antibody) here?
The EC50 (read off the curve) was 0.02 µg/mL.
